Data published in publication PMC2650391 (Molecular cell, 2009).

System: H3K4me peptides / ING4 PHD finger
Assay: Biotinylated histone peptide pull-down, Western analysis
Assay type: binding
Conditions: full-length vs PHD-deleted ING4

B1: ING4ΔPHD: ING4 derivative lacking the PHD finger (aa 1–194) (protein)
chain: MAAGMYLEHYLDSIENLPFELQRNFQLMRDLDQRTEDLKAEIDKLATEYMSSARSLSSEEKLALLKQIQEAYGKCKEFGDDKVQLAMQTYEMVDKHIRRLDTDLARFEADLKEKQIESSDYDSSSSKGKKKGRTQKEKKAARARSKGKNSDEEAPKTAQKKLKLVRTSPEYGMPSVTFGSVHPSDVLDMPVDPN
modifications: left off: GST (inferred from the vector pGEX6P1), end not stated, state not stated
recognition of methylated H3K4 peptides in pull-down: does not
